Assay results from IntAct's records for PubMed 19103756.

B1: Serine/threonine-protein kinase VRK1 (Homo sapiens), Q99986 (parent)
chain: MPRVKAAQAGRQSSAKRHLAEQFAVGEIITDMAKKEWKVGLPIGQGGFGCIYLADMNSSESVGSDAPCVVKVEPSDNGPLFTELKFYQRAAKPEQIQKWIRTRKLKYLGVPKYWGSGLHDKNGKSYRFMIMDRFGSDLQKIYEANAKRFSRKTVLQLSLRILDILEYIHEHEYVHGDIKASNLLLNYKNPDQVYLVDYGLAYRYCPEGVHKEYKEDPKRCHDGTIEFTSIDAHNGVAPSRRGDLEILGYCMIQWLTGHLPWEDNLKDPKYVRDSKIRYRENIASLMDKCFPEKNKPGEIAKYMETVKLLDYTEKPLYENLRDILLQGLKAIGSKDDGKLDLSVVENGGLKAKTITKKRKKEIEESKEPGVEDTEWSNTQTEEAIQTRSRTRKRVQK

Variants of: B1
Conditions: with plk3_human PLK3, Q9H4B4
plk3_human PLK3, Q9H4B4, sequence (Q9H4B4 whole entry, looked up): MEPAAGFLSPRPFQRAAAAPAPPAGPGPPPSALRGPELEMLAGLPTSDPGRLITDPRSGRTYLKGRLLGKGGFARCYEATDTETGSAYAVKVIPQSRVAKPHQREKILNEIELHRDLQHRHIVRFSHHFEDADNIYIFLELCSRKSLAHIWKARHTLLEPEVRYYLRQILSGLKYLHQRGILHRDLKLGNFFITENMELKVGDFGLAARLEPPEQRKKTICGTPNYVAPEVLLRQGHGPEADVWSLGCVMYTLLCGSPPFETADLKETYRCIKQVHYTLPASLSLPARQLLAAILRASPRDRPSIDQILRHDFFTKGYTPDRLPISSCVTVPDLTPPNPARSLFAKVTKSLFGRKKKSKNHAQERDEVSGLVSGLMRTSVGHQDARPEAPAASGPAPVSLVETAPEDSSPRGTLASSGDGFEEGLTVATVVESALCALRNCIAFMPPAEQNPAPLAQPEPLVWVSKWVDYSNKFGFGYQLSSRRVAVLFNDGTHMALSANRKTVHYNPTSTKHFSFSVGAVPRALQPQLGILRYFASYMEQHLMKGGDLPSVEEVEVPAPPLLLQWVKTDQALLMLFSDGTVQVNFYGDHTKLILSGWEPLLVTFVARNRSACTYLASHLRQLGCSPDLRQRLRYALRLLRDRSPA

Variant	effect of a mutation on the interaction
MPRVKAAQAGRQSSAKRHLAEQFAVGEIITDMAKKEWKVGLPIGQGGFGCIYLADMNSSESVGSDAPCVVKVEPSDNGPLFTELKFYQRAAKPEQIQKWIRTRKLKYLGVPKYWGSGLHDKNGKSYRFMIMDRFGSDLQKIYEANAKRFSRKTVLQLSLRILDILEYIHEHEYVHGDIKASNLLLNYKNPDQVYLVDYGLAYRYCPEGVHKEYKEDPKRCHDGTIEFTSIDAHNGVAPSRRGDLEILGYCMIQWLTGHLPWEDNLKDPKYVRDSKIRYRENIASLMDKCFPEKNKPGEIAKYMETVKLLDYTEKPLYENLRDILLQGLKAIGSKDDGKLDLAVVENGGLKAKTITKKRKKEIEESKEPGVEDTEWSNTQTEEAIQTRSRTRKRVQK [S342A]	disrupting interaction
